Experimental data from patent publication EP4676958A2 (dated 2026).

Biological target: T1, active human KLK7 (human, UniProt P49862 30-253)
T1 construct: mature; also called hKLK7; active form of hKLK7
Assay: SPR, antibody captured on Protein A chip, 20 nM hKLK7 (FIG. 11A, 11F)

T1 sequence (P49862 30-253): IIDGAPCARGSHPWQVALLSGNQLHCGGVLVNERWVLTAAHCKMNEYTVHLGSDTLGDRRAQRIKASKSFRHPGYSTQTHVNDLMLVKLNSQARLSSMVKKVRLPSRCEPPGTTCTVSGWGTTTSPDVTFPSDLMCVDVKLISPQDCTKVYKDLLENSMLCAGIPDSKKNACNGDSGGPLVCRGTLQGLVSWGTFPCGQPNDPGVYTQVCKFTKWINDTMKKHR

- binding result: binds
B1: KLK7-L1-Ab8 (antibody, V domains shown)
VH: QVQLVQSGAEVKKPGASVKVSCKASGYTFTSEGIHWVRQAPGQGLEWMGSISASSGDTNYAQKLQGRVTMTTDTSTSTAYMELRSLRSDDTAVYYCARSAGYGARHWYFDLWGQGTMVTVSS
VL: DIQMTQSPSSLSASVGDRVTITCRASQSISSYLNWYQQKPGKAPKLLIYGASSLQSGVPSRFSGSGSGTDFTLTISSLQPEDFATYYCDQWYSTPPITFGGGTKVEIK
notes: captured on Protein A; also called KLK7-Ll-Ab8; KLK7- Ll-Ab8
